From a protein production outcome set (Wang et al. 2014) come the findings set out here.

The nature of this series: label from the status in PepcDB records.

As to “MNKKNVELLVAIGEVYLKAGKLPEAQEYAALAKKVNGKSALASVLEGDIAFEQKNAGLASQKYEEAIYFDPSCTEAYLRYADIYKSANAALAIEKLEQLKAQEPSNTAVDKKLAEIYYLKNDFSKAAEAYSRFAMGPTATEEDLVKYAFALFLNHDFEKSLEVANMGLKKNARHAAFNRLAMYNYTDLKRFDEAIKAADAFFTESDKADYSYLDYMYYGHLLEALKKYDEAVGQYEKAIQLDPTKTDLYKNISSAYEQKNDYKKAISAYQKYYTSLDKEHQTPDLEHHHHHH”, the protein production result was “failed”.

For the sequence “MNKMIILLVIAIIFLHMCLIWLWYRYTNNPSVVDVGWASGLTLAGLIYLNNQEFSLRSLLLVLALLTWGIRLGGYLWWTRIRLKKIDKRYLALSNDWKLAKPLGFFLNFQLQGVLICLVSIPWYFSSSETQTALNLLDGLALIIFLTALILETVADNQLQDFKKNYPGKVCNQKLWRYCRHPNYFYEWLVWCSFTLFALSAPYGWIAIISPLTLYLIMTKITAPMTEQGSIESRGNLYIEYQKVTPMFFPKWLKNNSTPRK”, the protein production result is “failed”.

On to “MNKNLSEKMKIAFDIKLKNFGNKIEFAYPNQTLALSTTSNQCSLKCAHCNGHYLNNMVPIEEYEEKVQSRNITSFLLSGGCSYEGDVPINTHINTIKNLKEQGYRLNAHLGLMDKDSIVELCKYLDIVSFDLVFDDETIREVYKMKKSKEDYIEVYNTIQEHTEVAPHICIGLKGGQIKGEYEIIEYLQKNPPNKLTFIVLIPTKGTEYENVEPPELEGVADILCEARINLPDTEINLGCMRPRGVYRKELDQLSIMCGVNRIVLPSRSAKNKAIEMNMTINECKECCVL”, for which the protein production result is on record as “failed”.

As for “MNKQSAAVLMVMGSALSLQFGAAIGTQLFPLNGPWAVTSLRLFIAGLIMCLVIRPRLRSWTKKQWIAVLLLGLSLGGMNSLFYASIELIPLGTAVTIEFLGPLIFSAVLARTLKNGLCVALAFLGMALLGIDSLSGETLDPLGVIFAAVAGIFWVCYILASKKIGQLIPGTSGLAVALIIGAVAVFPLGATHMGPIFQTPTLLILALGTALLGSLIPYSLELSALRRLPAPIFSILLSLEPAFAAAVGWILLDQTPTALKWAAIILVIAASIGVTWEPKKMLVDAPLHSKCNAKRRVHTPS”, the protein production result is “failed”.

In the case of “MNKRNTQQRRHSIISILNEQGEVSVDELSLRFETSEVTIRKDLAELEKTGLLLRRYGGAVAIPDEVTQQFSAKIAPNKLSIAKAAAQLIKDHNRIIIDSGTTTSGLIAELNQKRGLVVMTNALHLANAIHELENEPTLLMTGGTWDPHSESFQGQVAEQVLRSYNFDQLFIGADGIDLARGTTTFNELTGLSKVMAEVSREVIVMVDSDKIGKRIPNLELPWSKISVLVTDARIEESALKQITEQGVKVILAPYSP”, the protein production entry was “failed”.

For the sequence “MNKRVQAFLAKMQEKELDGIIINNLKNVYYLTGFWGSNGTVFISRDRQVLVTDSRYIIAAKQETSGFEIVADRDELAVIAGIVKDMGLTRIGFEDEISVSYYHRMQAAFAGLNLLPQTQFVEGLRMIK”, the protein production entry was “failed”.

As for “MNKTELIKNVAQNAEISQKEATVVVQTVVESITNTLAAGEKVQLIGFGTFEVRERAARTGRNPQTGEEMQIAASKVPAFKAGKELKEAVK”, the protein production entry is given as “not failed”.

On to “MNKWAILSLACVPYALLTIVNEDTLEIGGSANIFWKIGLFAPLIGVLFSAGASKTYQRVMLALFNLSYYFVLYIYMIYTF”, for which the protein production result is “failed”.

Consider “MNLAQSNREIVELLVPIIVGYMSLFISSIFVYRIGKIILRRDSISLISAIIFLLNPSTIFCLLYSPKNYGFASVGYYFVPLLYLMSYYYYLKKDWKKFTAFTVALTLTSPLSYLIAITFIVYLLIRNRIDEKSLSWSLLRENKISLVLILVSLIIGVLVIPQTLQHFSSLLIASIYPQYTSLNYIYDNVYFKLTYWFILFGVFSFLPIFSPLELIPALPYLLVGLFSSYIPYYSYGYYPYYFLALPMLIMGFIRTINLIKDDKRTMLISYVFIFLFNVALLYVILE”, for which the protein production result is “failed”.

Consider “MNLASQSGEAGAGQLLFANFNQDNTEVKGASRAAGLGRRAVVWSLAVGSKSGYKFFSLSSVDKLEQIYECTDTEDVCIVERLFSSSLVAIVSLKAPRKLKVCHFKKGTEICNYSYSNTILAVKLNRQRLIVCLEESLYIHNIRDMKVLHTIRETPPNPAGLCALSINNDNCYLAYPGSATIGEVQVFDTINLRAANMIPAHDSPLAALAFDASGTKLATASEKGTVIRVFSIPEGQKLFEFRRGVKRCVSICSLAFSMDGMFLSASSNTETVHIFKLETVKEKPPEEPTTWTGYFGKVLMASTSYLPSQVTEMFNQGRAFATVRLPFCGHKNICSLATIQKIPRLLVGAADGYLYMYNLDPQEGGECALMKQHRLDGSLETTNEILDSASHDCPLVTQTYGAAAGKGTYVPSSPTRLAYTDDLGAVGGACLEDEASALRLDEDSEHPPMILRTD”, for which the protein production entry was “failed”.

Regarding “MNLDTPLADGLERAKRFEQGLQQVVLGQERPIRLLTLAVFARGHALLEGGVGVGKTTLLRAVARGIGGDYERIEGTIDLMPNDLVYYTYLDEQGRPGVAPGPLLKHGEQLSIFFFNEINRARPQVHSLLLRVMAERSVSAFNREYRFPYLQVFADRNRVEKEETFELPAAARDRFMLEIAIEPPADPAHIDQILFDPRFYDPDRLVASAPADTLSFRELNGIAEALQGGIHVSARLRSYVQDLWRATRRPEDFGIALHEADSGDMIEAGSSPRGMSYLVRLARVQAWLSGRDRVEPEDVQYVFAPAVGHRIFLKPVYEYRRAELIPELVGKLIRRIAAPLEHHHHHH”, the protein production result is “failed”.

Regarding “MNLLPGFAYIEMESISNLTPLVMKTLAGFIAGIPKAELHLHIEGTLEPEMMLALGERNGVPLPYPDADAAKSAYHFSDLQSFLDIYYRATAVLVTEQDFYDLTIAYLQKAVSRKVCHAEIFFDPQSHIARGVPFETVVGGIGQALSDANGGLGISTKLIMCILRHLSEEDGNAVLEQAVRWKRWISGIGLDSSEKGNPPGKFRELFAKARHYGFFTVAHAGEEGNASSISEALDALHVIRIDHGVHCMEDPVLVERLRLDRIPLTICPLSNVRLNVFGSMREHNLKTMLDAGLCVTINSDDPAYFGGYVNENYLAAAEALNLDRNDIIRLARNSFEASVLSNVQKKLYLQKLDHYVDSFIQ”, the protein production entry is “failed”.

For the sequence “MNLPFAPQSFAALLVMVMTLAHGSVSAQESFRVELGRDGETLGDMRPVFLKFESRPLPAISPLEVARRYQKLFESSDEPEVRIDALNRLNNIRNRSGEDVGFSEEREAAIYEEVLESYESILAKGSFSGRLDELLYQMAKAHALTGQPEQSIARLKQLVGLYPNSELVPEARFRIAEAAFSAGRYAEAEAGYRQLLEHDSHQELAAKARYMLGWSQFKQGNPAWARASASFTAVLDQQLPDHSALANPPAHSMDMLEDTFRVLALMASRQSDARTLADWLDGRESSAWQHLLYDRLADLHAVERRYERAVLVNNAFVSEFPGHTASPDFLAQSVSYWQLAGNTSKALAARDDYIQRLGAEARFQTMTPEQKGLWAQYSRFLADHYYATGTDLSSRNQTAAASEAWAKAAHYYERLAPRSEQAGELLHLAGDARLLAGDRTEAVRNFRAAAYDHRHGDSRDSAWAAIRIVREDLELASGENRTATLLVLSNEEQRYAEAFGPDQRLSGLRADLANRWYDLGEFERALHYASSTLTWERAGVTERYAAWLVTARIRQKNNEFGLAERAWRQALPLADEASQDAESQRRSLLEQLASAIYQQGEKAARAGDATLAVAHFQRVEGVMPGSEIAIKARYDAANTLLRASDWLAAINELQRFRIDYPSHELTPETSEKLVLAYQESGQGLKAAEELLNRSETLADPWPTRLRAAAIFHAEGDSASRNQLYKNWLAVAPTPDSADEHVQHQTMRQRLIESGDSVIAVREQLLARERASQWHSDGTLKWAADAALFFGAQTAERFAGIALVHPLEQALARKQAAMQQAQEYLQEAESFAGDGVRSEVLYRRAELYRTLASDLMSSEVPAELNEMEAMQYQMLLEEEAFPLEEEAMALHARNHERIPTEGFDEWIQRSLEALATMHPGRYDRQLRWMSWTTDTNQGGS”, the protein production entry is listed as “failed”.

In the case of “MNLPHLMSLASHLASHGFFCLRFTCKGLNIVHRIKAYKSVLNYLKTSGEYKLAGVFLGGRSMGSRAAASVMCHIEPDDGDDFVRGLICISYPLHHPKQQHKLRDEDLFRLKEPVLFVSGSADEMCEKNLLEKVAQKMQAPHKIHWIEKANHSMAVKGRSTNDVFKEINTQILFWIQEITEMDKKCH”, the protein production result was “failed”.

As for “MNLTRLREKILNKSHSAMLIFSDINISYLSTFTGHAATILLTSKGNYLLTDYRYFEQAKTQASHFNVICRDRANQSLASLIEDLLFQDDCQSLSFESEHISVMQWQQIHQQISQLTKLSQIEAVSGAVEALRFIKSTSEISSIEQAAKIADTALAAMLNSVKAGVTERELAIELDYQMAKLGSEEVSFATILLFGERSALPHGIPSDKQLKLGDIILIDFGAVVNGYRSDMTRTFVFGQASAEQKHIYQLVQSAQQAAIDAVYEGVLGSHLYQQSANILLNSEYKKYAGEGLGHGVGLVLHEQPFIGPDCHTTIEKGCVITIEPGIYIPGWGGIRIEDDVVLTDEGLKILTKSPKGLIEL”, the protein production result is “failed”.

As for “MNLVETAQAIEAGQVSLGIELGSTRIKAVLVTDDFNTIASGSYVWENRFEDGVWTYPLEEVWSGIQQSYTQMAADVQSKYHASLKHINAIGVSAMMHGYLAFDKNNELLVPFRTWRNNITGQSADELTKLFDFNIPQRWSIAHLYQAVLNDEDHVAKVDFITTLAGYVTWKLSGEKVLGVGDASGVFPIDEKTGSYDQAMLDKFSSLDNVKRYPWQIENILPSILPAGKIAGKLTADGANLLDASGNLEAGSVMAPPEGDAGTGMVGTNSVRKRTGNISVGTSAFSMNVLDKPLSKVYRDIDIVMTPDGSPVAMVHVNNCSSDINAWASIFSEFAARLGVDLKPDRLYETLFLESTKADANAGGLVNYSYQSGENITKIQAGRPLFVRTPNSKFSLPNFMLTQLYAAFAPLQIGMDILVNEEHVQTDVMIAQGGLFRTPVIGQQVLANALNIPITVMSTAGEGGPWGMAVLAAYAQRQTGANLEDFLDQEVFTNPESMTLSPEPAGVAGYQEFIKNYQAGLPVEAAAGEAISD”, the protein production result was “failed”.

Take “MNMAHTTTSMEIFGSPEQVWQLIGGFNSLPDWLPYIPSSKLTEGGRVRHLANPDGDTIIERLEVFNDKERYYTYSIMNAPFPVTNYLSTIQVKEGTESNTSLVEWSGTFTPVEVSDEEAINLFHGIYSDGLKALQQAFLDLEHHHHHH”: the protein production result is on record as “not failed”.

As for “MNMVQGSAFLAKLMKSADTFELKYDFSCELYRLSTYSTFPAGVPVSERSLARAGFYYTGVNDKVKCFSCGLMLDNWKQGDSPIEKHRKLYPSCSFVQTLNPANSLEASPQPPLPSTATSTMPSGFAASESTGYFSGSYSSFPSDPVNFRANQDCPAFSTSPYHFAMNTEKARLLTYQTWPLSFLSPAELAKAGFYYTGPGDRVACFACGGKLSNWDRKDDPLSEHRRHFPSCPFLKDVGQFTSQYTVSNLSMQTHAARVRTFSTWPSSALVHPQELASAGFYYTGHSDDVKCFCCDGGLRCWESGDDPWVEHAKWFPRCEYLIRIKGQEFVGQVQAGYPHLLEQLLSTSDSPEDETGEAAIVHLGPGENWEDAVMMNTPVVKAALDMGFSRSLVRQTVQRQILATGENYRTVSDLVIGLLDAEDEMREEQTEQEAEEEESDDLTLIRKNKMVLLQHLTPVTPILDCLLSARVITEQEYDAVKQKPHTLQARTLIDTVLAKGNTAATSFRNSLQEIDPGLYRDIFVRQNIRSLPTDDIAALPMEEQLRKLQEERTCKVCMDREVSLVFIPCGHLVVCKECAPSLRKCPICRGTIKGTVRTFLS”, the protein production result is “failed”.

On to “MNNDNNTILGFDVNLICDFFLNTERQGPGSPEVTLKALSFIDNLTNKSLIADLGCGTGGQTMILAQHVPGKITGIDFFPGFIERFNKNAEKLNLQNRVKGIVGSMDDLSFEKDSLDLIWSEGAIYNIGFERGLKEWRNYLKPGGYLAVSESVWFTDQRPAEIHDFWMSAYTEIDTVPNKVAQIQKAGYIPVATFILPENCWIEHYFAPQAKAEEIFRRKHAGSRIVEELITSNHHEAELYSKYKAYYGYAFFICKKGFSLRR”, for which the protein production entry is given as “failed”.
